According to patent US6015555, “Transferrin receptor specific antibody-neuropharmaceutical or diagnostic agent conjugates” (Alkermes, Inc., dated 2000):
Values belong to the molecule of their own block, whether it stands above or below them.

Key:
rat transferrin receptor [1] = target: T1, rat transferrin receptor (rat, UniProt Q99376)
rat transferrin receptor [2] = target: T1, rat transferrin receptor; remark: listed apart in the source
rat transferrin receptor [3] = target: T1, rat transferrin receptor; remark: listed apart in the source
[4] = target: transferrin receptor on monkey (cynomolgous) brain capillaries (monkey (cynomolgous))
rat transferrin receptor [5] = target: T1, rat transferrin receptor; assay: immunohistochemistry on rat brain sections (brain capillary endothelial cells)
From the text: Biodistribution and Brain Uptake of Anti-Human Transferrin Receptor Antibodies in Cynomolgous Monkeys A collection of 32 murine monoclonal antibodies which recognize various epitopes on the human transferrin receptor were examined for reactivity with brain capillary endothelial cells in sections from human, monkey (cynomolgous), rat and rabbit brain samples by the immunohistochemical methods described in Example 1. These antibodies were obtained from Dr. Ian Trowbridge of the Salk Institute, LaJolla, Calif. […] Two antibodies reacted very weakly with rabbit brain capillaries and none reacted with rat. […] These 2 antibodies are herewithin referred to as 128.1 and Z35.2.

percent of the injected dose of 14C-labelled antibody in the brain (% of the injected dose) (rat transferrin receptor [1]): 0.9 | distribution of radiolabelled antibody between brain capillary fraction and parenchyma fraction (capillary depletion) (rat transferrin receptor [2]): 0.36 % ID
Molecule: OX-26 murine monoclonal antibody

distribution of 3H-MTX label between brain capillary fraction and parenchyma fraction (capillary depletion) (rat transferrin receptor [3]): 4.5 fold
Molecule: OX-26-methotrexate (MTX) conjugate linked via a gamma-hydrazid (antibody)

share of 14C-labelled antibody in the brain parenchyma (capillary depletion) 24 hours after injection into a cynomolgous monkey [4]: 90% | binding result (rat transferrin receptor [5]): no binding
B1: murine monoclonal antibody 128.1 (antibody, V domains shown)
VH: EVQLQQSGPELVKPGASMKISCKASGYSFTGYTMNWVKQSHGENLEWIGRINPHNGGTDYNQKFKDKAPLTVDKSSNTAYMELLSLTSGDSAVYYCARGYYYYSLDYWGQGTSVTVSS
VL: QIVLTQSPAIMSVSPGEKVTMTCSASSSIRYIHWYQQRPGTSPKRWIYDTSNLASGVPARFSGSGSGTSYSLTISSMEAEDAATYYCHQRNSYPWTFGGGTRLEIR
